Earlier results in article PMC12874384.

How the values were obtained:
Asp260 = Asp260 (UniProt position 260, SCGVADLITTC); assay: kinetics (pH-rate profile); conditions: kcat/Km profile for reaction of DHAP dianion in the presence of NADH
Lys204 [1] = target: T1, Lys204 (UniProt position 204, ICGALKNVVAV); assay: kinetics (pH-rate profile); conditions: kcat/Km profile for reaction of DHAP dianion in the presence of NADH
Glu165 [2] = assay: kinetics (competitive inhibition, pH dependence of Ki); conditions: enzyme•PGA trianion complex (closed, inhibitor-bound)
Glu165 [3] = target: Glu165 (UniProt position 165, VVLAYEPVWAI); assay: as above; conditions: enzyme•PGA trianion complex (closed, inhibitor-bound)
Glu165 [4] = target: Glu165 (UniProt position 165, VVVAYEPVWAI); assay: as above; conditions: enzyme•PGA trianion complex (closed, inhibitor-bound)
Lys204 [5] = target: T1, Lys204; assay: kinetics (pH-rate profile of chemical rescue); conditions: K120A variant with EtNH3+ activator, DHAP and NADH

Glycerol 3-phosphate dehydrogenase [NAD+], human liver (hlGPDH) (Homo sapiens)
pKa (Asp260): 4.4
pKa (Lys204 [1]): 7.6

TbbTIM I170A variant (I172A in TbbTIM numbering) (Trypanosoma brucei brucei; I170A)
pKa (Glu165 [2]): 7.7

TbbTIM P166A variant (P168A in TbbTIM numbering) (Trypanosoma brucei brucei; P166A)
pKa (Glu165 [2]): 9.3

TbbTIM P166A/I170A double variant (P168A/I172A in TbbTIM numbering) (Trypanosoma brucei brucei; P166A;I170A)
pKa (Glu165 [2]): 7.8

Triosephosphate isomerase, Trypanosoma brucei brucei (TbbTIM) (Trypanosoma brucei brucei)
pKa (Glu165 [2]): ≈ 11

Triosephosphate isomerase, chicken (cTIM) (Gallus gallus)
pKa (Glu165 [3]): ≈ 11

Triosephosphate isomerase, yeast (yTIM) (Saccharomyces cerevisiae)
pKa (Glu165 [4]): ≈ 11

cTIM loop 7 replacement variant (L7RM, 208-TGAG-211) (Gallus gallus; Y208T;G210A;S211G)
pKa (Glu165 [3]): 6.7

hlGPDH K120A variant (Homo sapiens; K120A)
pKa (Asp260): 5.0
pKa (Lys204 [1]): 7.6
pKa (Lys204 [5]): 7.7

yTIM S211A variant (Saccharomyces cerevisiae; S211A)
pKa (Glu165 [4]): 8.2

yTIM Y208F variant (Saccharomyces cerevisiae; Y208F)
pKa (Glu165 [4]): 6.3
